Measured values published in patent US20130216513A1 (Biogen, published 2013).

Target: T1, GPIIbIIIa on activated human platelets (human, UniProt P08514 32-1039; P05106 27-788)
T1 construct: whole, on cells; also called active form of GPIIbIIIa
Experiment: FACS on activated human platelets, FITC-labeled FVII antibody; reference FVIIaFc (FVII-011); FIG. 44C

binding result: binds
B1: FVII-094 (other)
chain 1: ANAFLEELRPGSLERECKEEQCSFEEAREIFKDAERTKLFWISYSDGDQCASSPCQNGGSCKDQLQSYICFCLPAFEGRNCETHKDDQLICVNENGGCEQYCSDHTGTKRSCRCHEGYSLLADGVSCTPTVEYPCGKIPILEKRNASKPQGR
chain 2: IVGGKVCPKGECPWQVLLLVNGAQLCGGTLINTIWVVSAAHCFDKIKNWRNLIAVLGEHDLSEHDGDEQSRRVAQVIIPSTYVPGTTNHDIALLRLHQPVVLTDHVVPLCLPERTFSERTLAFVRFSLVSGWGQLLDRGATALELMVLNVPRLMTQDCLQQSRKVGDSPNITEYMFCAGYSDGSKDSCKGDSGGPHATHYRGTWYLTGIVSWGQGCATVGHFGVYTRVSQYIEWLQKLMRSEPRPGVLLRAPFPDIGGGGSGGGGSGGGGSGGGGSGGGGSGGGGSAQVQLQESGGGLVQPGGSLRLSCAASGFMFSRYAMSWVRQAPGKGPEWVSGISGSGGSTYYADSVKGRFTVSRDNSKNTLYLQMNSLRAEDTAVYYCARGATYTSRSDVPDQTSFDYWGQGTLVTVSSGSASAPKLEEGEFSEARVSELTQDPAVSVALGQTVRITCQGDSLRNFYASWYQQKPGQAPTLVIYGLSKRPSGIPDRFSASSSGNTASLTITGAQAEDEADYYCLLYYGGGQQGVFGGGTKLTVLRQPKAAPSVTLFPPSSAA
notes: SCE5 at the C-terminus of FVIIa; no Fc; also called pSYN-FVII-094
